Here are results for one molecule from patent publication US20060063701A1 (INSTITUTE FOR PROTEIN SCIENCE, published 2006).

Ends that are not written are not given here.

In one test the target is T1, recombinant human C5a (human, UniProt P01031 678-751).
T1 construct: domain: C5a anaphylatoxin (74-amino acid peptide); The calcium assay names recombinant human C5a; The SPR section says only 'C5a'; C5a is a 74-residue fragment of it; also called RhC5a; C5a anaphylatoxin
T1 sequence (looked up): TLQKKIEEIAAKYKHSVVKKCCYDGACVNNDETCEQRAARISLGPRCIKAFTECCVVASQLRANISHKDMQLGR
Put plainly: SPR (Biacore), C5a amine-coupled to CM5 chip, peptide as analyte. As to the method:
(§1) FIG. 1. Binding of C-peptides to immobilized PL37-MAP and C5a using Biacore equipment. An overlay plot of response curves obtained from the Biacore instrument when various concentrations of Pep-A and Pep-B were injected. All samples were injected at time 0, and the association was monitored as an increase in RU. a, Various concentrations of Pep-A were injected over the PL37-MAP-coupled flow cell. b, The same concentrations of Pep-B were also injected over the PL37-MAP-coupled flow cell. c, Pep-A was injected over the C5a-coupled flow cell at the same concentrations of Pep-A as in FIG. 1a. d, The same concentrations of Pep-B were also injected over the C5a-coupled flow cell.
(§2) Binding interactions between PL37 or C5a with C-peptides were evaluated using surface plasmon resonance (SPR) technology with the Biacore system. PL37 and C5a were covalently immobilized on the CM5 sensor chip by amine coupling methods using N-ethyl-N-(dimethylaminopropyl)carbodiimide/N-hydroxysuccinimide (EDC/NHS) according to the manufacturer's instructions. […] Binding interactions were determined by passing samples simultaneously over both the EA-blocked cell and the flow cell with immobilized PL37 or C5a so as to obtain units of resonance response (RU) by subtraction of the background using Biacore software (BIA evaluation).

Test [1] has as its target T2, PL37 in multiple antigenic peptide form (human, also: multiple antigenic peptide form, core and copy number not given here, abstract and print the sequence differently).
T2 construct: PL37 is the fragment aa 37-53 of C5a anaphylatoxin; The assays used the MAP form; its core and valency are not described; also called PL37-MAP
T2 peptide: RAARISLGPRCIKAFTE
Put plainly: SPR (Biacore), PL37-MAP amine-coupled to CM5 chip, peptide as analyte. As for the experimental part: as §1
as §2, with “evaluation). […]” for “evaluation).”
In general terms: Surface plasmon resonance follows binding to a sensor surface in real time, without labels.

B1: Peptide-B (peptide)
peptide: ASTAPARAGLPRLPKFF
notes: Synthetic 17-residue complementary peptide designed with MIMETIC against PL37; also called Pep-B; C-peptide B
With B1, the binding result (with recombinant human C5a; in test [1]) was “no binding” each time.
